Data set [1] concerns the target synthetic Aβ (1-40) peptide (Biosource), P05067.
The target in data set [2] is T1, Amylin (islet amyloid polypeptide, IAPP), P10997.
T1 chain: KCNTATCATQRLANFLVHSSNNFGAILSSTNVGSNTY

Chain of synthetic Aβ (1-40) peptide (Biosource), P05067 (P05067 whole entry, looked up, tested part not stated): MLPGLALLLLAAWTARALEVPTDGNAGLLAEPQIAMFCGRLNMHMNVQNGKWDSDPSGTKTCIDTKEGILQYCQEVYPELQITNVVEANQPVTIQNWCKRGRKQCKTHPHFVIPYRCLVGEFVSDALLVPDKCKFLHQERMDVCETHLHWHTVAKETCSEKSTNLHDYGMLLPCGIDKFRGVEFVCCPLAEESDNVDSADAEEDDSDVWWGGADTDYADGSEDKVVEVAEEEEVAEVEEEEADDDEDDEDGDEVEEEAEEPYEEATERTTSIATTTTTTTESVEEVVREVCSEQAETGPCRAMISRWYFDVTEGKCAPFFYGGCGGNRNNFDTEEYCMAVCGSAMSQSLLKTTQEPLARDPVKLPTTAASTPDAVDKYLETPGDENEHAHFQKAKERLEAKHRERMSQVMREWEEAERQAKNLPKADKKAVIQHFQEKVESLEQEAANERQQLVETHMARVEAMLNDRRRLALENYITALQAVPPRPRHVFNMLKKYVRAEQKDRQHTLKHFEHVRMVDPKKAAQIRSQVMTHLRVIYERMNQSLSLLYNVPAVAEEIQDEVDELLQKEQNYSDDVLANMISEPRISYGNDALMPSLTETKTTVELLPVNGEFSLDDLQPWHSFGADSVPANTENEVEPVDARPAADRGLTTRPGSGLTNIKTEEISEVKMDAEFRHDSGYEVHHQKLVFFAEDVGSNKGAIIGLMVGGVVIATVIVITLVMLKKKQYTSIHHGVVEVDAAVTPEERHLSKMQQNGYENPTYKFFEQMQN

B1: purified human BChE (butyrylcholinesterase, from human serum; Sigma) (protein)
chain: EDDIIIATKNGKVRGMNLTVFGGTVTAFLGIPYAQPPLGRLRFKKPQSLTKWSDIWNATKYANSCCQNIDQSFPGFHGSEMWNPNTDLSEDCLYLNVWIPAPKPKNATVLIWIYGGGFQTGTSSLHVYDGKFLARVERVIVVSMNYRVGALGFLALPGNPEAPGNMGLFDQQLALQWVQKNIAAFGGNPKSVTLFGESAGAASVSLHLLSPGSHSLFTRAILQSGSFNAPWAVTSLYEARNRTLNLAKLTGCSRENETEIIKCLRNKDPQEILLNEAFVVPYGTPLSVNFGPTVDGDFLTDMPDILLELGQFKKTQILVGVNKDEGTAFLVYGAPGFSKDNNSIITRKEFQEGLKIFFPGVSEFGKESILFHYTDWVDDQRPENYREALGDVVGDYNFICPALEFTKKFSEWGNNAFFYYFEHRSSKLPWPEWMGVMHGYEIEFVFGLPLERRDNYTKAEEILSRSIVKRWANFAKYGNPNETQNNSTSWPVFKSTEQKYLTLNTESTRIMTKLRAQQCRFWTSFFPKVLEMTGNIDEAEWEWKAGFHRWNNYMMDWKNQFNDYTSKKESCVGL
Take B1: in data set [1], the “Aβ fibril formation in a mix of 33 µM Aβ with 0.36 µM AChE-S and increasing doses of hBChE (ThT fluorescence)” value was “a dose-dependent interference with the fibril formation process was observed”; the Lag (fold change) of Aβ fibrillation against no addition was determined as 1.4 fold; the Lag (h) before onset of Aβ fibrillation came to 5.6 h; the Rate (FU/h) of Aβ fibrillation, ThT fluorescence, BChE at 27.4 mg/L was found to be 1.1 FU/h. Also, in data set [1], the Rate (fold change) of Aβ fibrillation against no addition came to 0.3 fold; the “concentration needed for a complete attenuation of Aβ fibrillation (for 400 minutes)” value was “as compared with 30 µg/ml of the complete BChE enzyme”; the “time for which Aβ fibril formation was totally prevented (0.4 µM BChE, 33 µM Aβ, ThT fluorescence)” value was “addition of 0.4 µM BChE to 33 µM Aβ totally prevented fibril formation for over 600 minutes”. In addition, in data set [2], the “lag time of amylin amyloid fibril formation with 0.24 µM BChE (30 minutes without)” value is on record as “increased the lag time of amyloid fibril formation from 30 minutes to 110 minutes” and the “time for which amylin fibril formation was completely attenuated (20 µM amylin, 0.24 µM BChE, ThT fluorescence)” value was “BChE completely attenuated the formation of amylin fibrils for 100 minutes”.

B2: recombinant human AChE-S (synaptic acetylcholinesterase) (protein)
chain: EGREDAELLVTVRGGRLRGIRLKTPGGPVSAFLGIPFAEPPMGPRRFLPPEPKQPWSGVVDATTFQSVCYQYVDTLYPGFEGTEMWNPNRELSEDCLYLNVWTPYPRPTSPTPVLVWIYGGGFYSGASSLDVYDGRFLVQAERTVLVSMNYRVGAFGFLALPGSREAPGNVGLLDQRLALQWVQENVAAFGGDPTSVTLFGESAGAASVGMHLLSPPSRGLFHRAVLQSGAPNGPWATVGMGEARRRATQLAHLVGCPPGGTGGNDTELVACLRTRPAQVLVNHEWHVLPQESVFRFSFVPVVDGDFLSDTPEALINAGDFHGLQVLVGVVKDEGSYFLVYGAPGFSKDNESLISRAEFLAGVRVGVPQVSDLAAEAVVLHYTDWLHPEDPARLREALSDVVGDHNVVCPVAQLAGRLAAQGARVYAYVFEHRASTLSWPLWMGVPHGYEIEFIFGIPLDPSRNYTAEEKIFAQRLMRYWANFARTGDPNEPRDPKAPQWPPYTAGAQQYVSLDLRPLEVRRGLRAQACAFWNRFLPKLLSATDTLDEAERQWKAEFHRWSSYMVHWKNQFDHYSKQDRCSDL
As for B2, in data set [1], the Lag (fold change) of Aβ fibrillation against no addition was determined as 0.6 fold; the Lag (h) before onset of Aβ fibrillation (no addition: 4.0 ± 0.3) came out at 2.5 h; the Rate (FU/h) of Aβ fibrillation, ThT fluorescence, 33 µM Aβ, AChE-S at 25.8 mg/L (no addition: 3.4 ± 0.4) was 7 FU/h; the Rate (fold change) of Aβ fibrillation against no addition was 2.1 fold.
